Patent US20090042805A1

Biological target: other caspases
Test: cell-based or functional assay

inhibition of the cleavage of AMC substrates by human recombinant caspases (cross-reaction): < 20%
B1: Ac-VDVAD-cho (peptide)
peptide: Ac-VDVAD-aldehyde
